Drawing on PMC2814163 (2010), this text covers Kd for 2 molecules.

The test has as its target T1, Glu-plasminogen (Homo sapiens, UniProt P00747).
T1 chain: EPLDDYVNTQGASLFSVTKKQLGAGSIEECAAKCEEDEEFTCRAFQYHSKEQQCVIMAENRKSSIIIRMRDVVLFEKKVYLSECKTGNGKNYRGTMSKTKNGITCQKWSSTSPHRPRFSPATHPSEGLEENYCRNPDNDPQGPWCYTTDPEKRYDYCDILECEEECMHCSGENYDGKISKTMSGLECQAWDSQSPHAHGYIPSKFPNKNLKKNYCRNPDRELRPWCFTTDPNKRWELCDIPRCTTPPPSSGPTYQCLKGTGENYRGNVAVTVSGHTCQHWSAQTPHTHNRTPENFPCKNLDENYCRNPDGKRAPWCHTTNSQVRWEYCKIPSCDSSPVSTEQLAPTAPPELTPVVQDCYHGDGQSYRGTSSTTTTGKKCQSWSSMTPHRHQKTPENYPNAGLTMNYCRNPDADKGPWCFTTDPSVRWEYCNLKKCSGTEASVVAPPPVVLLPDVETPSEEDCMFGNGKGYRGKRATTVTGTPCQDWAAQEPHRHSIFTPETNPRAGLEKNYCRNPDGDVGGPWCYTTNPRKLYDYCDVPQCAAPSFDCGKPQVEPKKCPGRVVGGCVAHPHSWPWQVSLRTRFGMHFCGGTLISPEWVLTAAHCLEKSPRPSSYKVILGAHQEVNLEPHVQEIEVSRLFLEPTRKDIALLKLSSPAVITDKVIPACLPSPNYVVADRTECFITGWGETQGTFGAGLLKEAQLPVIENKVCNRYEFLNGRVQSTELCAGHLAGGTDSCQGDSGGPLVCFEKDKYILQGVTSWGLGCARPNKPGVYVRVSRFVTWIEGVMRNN
The test can be described thus: SPR.

B1: CI-MPR Dom1-3 (protein)
chain: AAGTQGAEFPELCSYTWEAVDTKNNMLYKINICGNMGVAQCGPSSAVCMHDLKTDSFHSVGDSLLKTASRSLLEFNTTVNCKQQNHKIQSSITFLCGKTLGTPEFVTATDCVHYFEWRTTAACKKNIFKANKEVPCYAFDRELKKHDLNPLIKTSGAYLVDDSDPDTSLFINVCRDIEVLRASSPQVRVCPTGAAACLVRGDRAFDVGRPQEGLKLVSNDRLVLSYVKEGAGQPDFCDGHSPAVTITFVCPSERREGTIPKLTAKSNCRFEIEWVTEYACHRDYLESRSCSLSSAQHDVAVDLQPLSRVEASDSLFYTSEADEYTYYLSICGGSQAPICNKKDAAVCQVKKADSTQVKVAGRPQNLTLRYSDGDLTLIYFGGEECSSGFQRMSVINFECNQTAGNNGRGAPVFTGEVDCTYFFTWDTKYACVH
One may read the Kd as a measure of binding affinity in units of concentration. For B1, the dissociation constant Kd stood at 3 nM.

B2: CI-MPR Dom1-2 (protein)
chain: AAGTQGAEFPELCSYTWEAVDTKNNMLYKINICGNMGVAQCGPSSAVCMHDLKTDSFHSVGDSLLKTASRSLLEFNTTVNCKQQNHKIQSSITFLCGKTLGTPEFVTATDCVHYFEWRTTAACKKNIFKANKEVPCYAFDRELKKHDLNPLIKTSGAYLVDDSDPDTSLFINVCRDIEVLRASSPQVRVCPTGAAACLVRGDRAFDVGRPQEGLKLVSNDRLVLSYVKEGAGQPDFCDGHSPAVTITFVCPSERREGTIPKLTAKSNCRFEIEWVTEYACHR
B2 yielded a dissociation constant (Kd) of 5 nM.
